From patent publication US20250059284A1 (AGENX, published 2025) come the findings set out here.

Assay [1] concerns the target T1, recombinant galectin-10 crystals (Charcot-Leyden crystals) (UniProt Q05315 2-142, limits assumed).
T1 sequence (looked up): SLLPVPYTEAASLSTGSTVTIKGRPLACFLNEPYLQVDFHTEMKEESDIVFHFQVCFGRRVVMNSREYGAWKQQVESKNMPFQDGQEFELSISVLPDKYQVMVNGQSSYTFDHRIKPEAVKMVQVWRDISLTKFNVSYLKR
Description: cell-based or functional assay.

The target in assay [2] is T2, human Gal10-His (human, UniProt Q05315 2-142, limits assumed).
T2 construct: also called human galectin-10; not shown: His tag
T2 sequence: T1 sequence (looked up)
Description: SPR Biacore 3000; human Gal10-His captured on anti-His CM5 chip; Fab at 30 nM. The protocol: (§1) The binding properties of the selected Fab clones to human and cynomolgus Gal10 was analyzed via a capture method established on Biacore 3000. For this purpose, two approaches were used. In the first one, two concentrations of the selected Fab clone were applied on cynomolgus (WGS isoform) Gal10-His capture on a CM5 chip coated with a monoclonal anti-His. In the second approach, a serial dilution was applied on human or cynomolgus (WGS isoform) Gal10 His on the same set up.

Assay [3] concerns the target T3, cynomolgus Gal10-His (WGS isoform) (cynomolgus).
T3 construct: also called cyno Gal10; cynomolgus antigen
Description: SPR Biacore 3000; cynomolgus Gal10-His (WGS isoform) captured on anti-His CM5 chip; Fab at 30 nM. The procedure:
as §1

The target in assay [4] is T2, human Gal10-His. The assay can be described thus: SPR Biacore 3000; human Gal10-His captured on anti-His CM5 chip. The procedure:
The binding properties of the selected Fab clones to human Gal10 were analyzed via a capture method established on Biacore 3000. It was decided to apply two concentrations of the selected Fab clones on human Gal10-His immobilized on a CM5 chip coated with a monoclonal anti-His.

The target in assay [5] is T4, galectin-10 (Gal10), species and tag not stated for the assay (UniProt Q05315 2-142, limits assumed).
T4 construct: human is likely, since the human-specific 1D11 is in the panel
T4 sequence (looked up): T1 sequence (looked up)
Description: SPR (Biacore 3000), binding activity of the sample stored 4 weeks at +5 C and nebulized, relative to reference sample T0; criterion <20% loss. The protocol:
The functional active concentration of the nebulized solutions was assessed by SPR on a Biacore 3000 instrument. All samples were evaluated with methods meeting the standard qualification criteria. Aliquots were tested at predefined test concentrations against titration curves from reference samples (TO) and in the presence of quality control (QC) samples.

Numbering of substitutions follows the chain as printed.

B1: g24F02_N53A human Fab (Fab, V domains shown)
VH: EVQLLESGGGLVQPGGSLRLSCAASGFTFSSYAMSWVRQAPGKGLEWVSAINAGGGSTSYADSVKGRFTISRDNSKNTLYLQMNSLRAEDTAVYYCAKGLRVGVLGFDYWGQGTLVTVSS
VL: SYELTQPLSVSVALGQTARITCDGNNIGSKSAQWYQQKPGQAPVLVIYADEYRPEGIPERFSGSNSGNTATLTISRAQAGDEADYYCQVWDGSAAVFGGGTQLTVL
notes: Human Fab backbone
For the molecule B1, in assay [1], the “EC50, Gal10 crystal dissolution, stressed material (T4W post-nebulization, after 2 hour incubation), assay 2” value worked out at 159 µg/mL; the “EC50, Gal10 crystal dissolution, unstressed material (T0, after 2 hour incubation), assay 2” value was 191 µg/mL; the “relative activity in recombinant Gal10 crystal dissolution, T4W post-nebulization sample relative to unstressed material T0 (at 2 hour incubation)” value stood at 120%. Further, the “Amplitude R0 (RU) 30 nM” value with human Gal10-His [2] amounted to 647 RU. The “Amplitude R0 (RU) 30 nM” value in assay [3] came out at 544 RU. In addition, the “fold better off rate than g7B07” value with human Gal10-His [4] was 3.5 fold. In addition, in assay [5], the “relative activity by SPR for T4W post-nebulization sample relative to reference sample T0” value (from here on “relative activity by SPR”) was determined as 111%.

B2: g20H09 human Fab (Fab, V domains shown)
VH: EVQLLESGGGLVQPGGSLRLSCAASGFTFRSYDMSWVRQAPGKGLEWVSAIKWHRITYYADSVKGRFTISRDNSKNTLYLQMNSLRAEDTAVYYCATTHGIGTLGFGSWGQGTLVTVSS
VL: B1 VL
notes: Germlined clone in human Fab backbone; also called clone 20H09
With B2, in assay [1], the “EC50, Gal10 crystal dissolution, stressed material (T4W post-nebulization, after 2 hour incubation), assay 1” value stood at 395 µg/mL; the “EC50, Gal10 crystal dissolution, unstressed material (T0, after 2 hour incubation), assay 1” value was determined as 260 µg/mL; the “relative activity in recombinant Gal10 crystal dissolution, T4W post-nebulization sample relative to unstressed material T0 (at 2 hour incubation)” value stood at 66%. Also, in assay [5], the “relative activity by SPR” value stood at 97%.

B3: g23H09 human Fab (Fab, V domains shown)
VH: EVQLLESGGGLVQPGGSLRLSCAASGFTFRSYDMSWVRQAPGKGLEWVSAIAQFQHWTYYADSVKGRFTISRDNSKNTLYLQMNSLRAEDTAVYYCATTHGIGTLGFGSWGQGTLVTVSS
VL: B1 VL
notes: Germlined clone in human Fab backbone; also called clone 23H09
Take B3: in assay [1], the “EC50, Gal10 crystal dissolution, stressed material (T4W post-nebulization, after 2 hour incubation), assay 1” value is 297 µg/mL; the “EC50, Gal10 crystal dissolution, stressed material (T4W post-nebulization, after 2 hour incubation), assay 2” value was determined as 209 µg/mL; the “EC50, Gal10 crystal dissolution, unstressed material (T0, after 2 hour incubation), assay 1” value came out at 252 µg/mL; the “EC50, Gal10 crystal dissolution, unstressed material (T0, after 2 hour incubation), assay 2” value came to 190 µg/mL. For the same molecule, in assay [1], the “relative activity in recombinant Gal10 crystal dissolution, T4W post-nebulization sample relative to unstressed material T0 (at 2 hour incubation), assay 1” value is 85% and the “relative activity in recombinant Gal10 crystal dissolution, T4W post-nebulization sample relative to unstressed material T0 (at 2 hour incubation), assay 2” value was found to be 91%. In the assay with human Gal10-His [2], the “Amplitude R0 (RU) 30 nM” value is 722 RU. The “Amplitude R0 (RU) 30 nM” value in assay [3] stood at 589 RU. In addition, in the assay with human Gal10-His [4], the “fold better off rate than g7B07” value was 1.9 fold. For the same molecule, the “relative activity by SPR” value in assay [5] worked out at 119%.

B4: g24F02 human Fab (Fab, V domains shown)
VH: B1 VH with A53N
VL: B1 VL
notes: Germlined clone in human Fab backbone
With B4, the “Amplitude R0 (RU) 30 nM” value is 644 RU with human Gal10-His [2] and 566 RU in assay [3].
